In paper PMC3184956, “How to Change the Oligomeric State of a Circular Protein Assembly: Switch from 11-Subunit to 12-Subunit TRAP Suggests a General Mechanism” (PLoS ONE, 2011):
Values belong to the molecule of their own block, whether it stands above or below them.

How the values were obtained:
[1] = target: Bacillus stearothermophilus E71stop TRAP (Bacillus stearothermophilus); assay: crystal structure; hanging drop vapor diffusion at 18°C, protein with 5-15 mM L-tryptophan; data at 120 K; ring oligomer built from the asymmetric unit and crystallographic symmetry
[2] = target: Bacillus stearothermophilus E71stop TRAP (Bacillus stearothermophilus); assay: native MS; nanoflow electrospray, 100 mM ammonium acetate (pH 7.5), 10 µM L-tryptophan, protein 0.1–0.4 mg/ml
[3] = target: Bacillus halodurans trp RNA-binding attenuation protein (TRAP) (Bacillus halodurans); assay: crystal structure; hanging drop vapor diffusion at 18°C, protein with 5-15 mM L-tryptophan; data at 120 K; ring oligomer built from the asymmetric unit and crystallographic symmetry
[4] = target: Bacillus halodurans trp RNA-binding attenuation protein (TRAP) (Bacillus halodurans); assay: native MS; nanoflow electrospray, 100 mM ammonium acetate (pH 7.5), 10 µM L-tryptophan, protein 0.1–0.4 mg/ml
[5] = target: the molecule itself; assay: crystal structure; hanging drop vapor diffusion at 18°C, protein with 5-15 mM L-tryptophan; data at 120 K; ring oligomer built from the asymmetric unit and crystallographic symmetry
[6] = target: the molecule itself; assay: native MS; nanoflow electrospray, 100 mM ammonium acetate (pH 7.5), 10 µM L-tryptophan, protein 0.1–0.4 mg/ml

- stoichiometry N [1]: 12 subunits
- stoichiometry N [2]: 12 subunits
Molecule: Bacillus stearothermophilus E71stop TRAP (domain or fragment)

- stoichiometry N [3]: 12 subunits
- stoichiometry N [4]: 12 subunits
Molecule: Bacillus halodurans trp RNA-binding attenuation protein (TRAP) (natural protein)

B1: Bacillus subtilis K71stop TRAP (domain or fragment, UniProt P19466 1-71, looked up)
chain: MNQKHSSDFVVIKAVEDGVNVIGLTRGTDTKFHHSEKLDKGEVIIAQFTEHTSAIKVRGEALIQTAYGEMK
notes: TRAP of Bacillus subtilis with the last four amino acids removed from the C-terminus (K71stop); Homo-12-mer; also called B. subtilis TRAP K71stop; mutant B. subtilis TRAP; source: QuikChange on a pET9a plasmid containing the wild type gene; produced and purified as described previously [10]; size-exclusion chromatography (Superdex 200); copies: 12
- stoichiometry N [5]: 12 subunits

B2: Bacillus stearothermophilus TRAP, wild type (natural protein, UniProt Q9X6J6 1-74, looked up)
chain: MYTNSDFVVIKALEDGVNVIGLTRGADTRFHHSEKLDKGEVLIAQFTEHTSAIKVRGKAYIQTRHGVIESEGKK
notes: Homo-11-mer; control of the native mass spectrometry; also called B. stearothermophilus TRAP; TRAP11; source: pET9a plasmid containing the wild type gene; produced and purified as described previously [10]; copies: 11
- stoichiometry N [6]: 11 subunits

B3: Bacillus subtilis V11L TRAP (natural protein, UniProt P19466 1-75, looked up)
chain: MNQKHSSDFVLIKAVEDGVNVIGLTRGTDTKFHHSEKLDKGEVIIAQFTEHTSAIKVRGEALIQTAYGEMKSEKK
notes: TRAP of Bacillus subtilis with the mutation Val11 to Leu; Homo-12-mer by native mass spectrometry; could not be crystallised; also called V11L mutant; B. subtilis V11L TRAP; source: QuikChange on a pET9a plasmid containing the wild type gene; produced and purified as described previously [10]; copies: 12
- stoichiometry N [6]: 12 subunits
